Data as given in patent US20220306744A1 (CRESCENDO BIOLOGICS, published 2022).
Where a chain is given by its changes, count along the chain named.

B1: 1.77b-4GS-1.77b (other)
chain: EVQLVESGGGLVKPGGSLRLSCAASGFTFSDSSMTWMRQAPGKGLEWVSYISSGGGVKFYTDSVKGRFTISRDNAKNSLYLQMNSLRAEDTAVYYCAREAPLRLGESPHDAFDISGQGTMVTVSSGGGGSGGGGSGGGGSGGGGSEVQLVESGGGLVKPGGSLRLSCAASGFTFSDSSMTWMRQAPGKGLEWVSYISSGGGVKFYTDSVKGRFTISRDNAKNSLYLQMNSLRAEDTAVYYCAREAPLRLGESPHDAFDISGQGTMVTVSS
B2: 1.1b (VHH)
VHH: QVQLVESGGGLVKPGGSLRLSCAASGFTFSDYTMTWMRQAPGKGLEWVSYISTGGTIKYYTDSVKGRFTISRDNAKNSLYLQMNSLRADDTAVYYCAREAPLRLGESPHDAFDIWGQGTMVTVSS
notes: also called Humabody 1.1b
B3: 1.57b (VHH)
VHH: B2 VHH with Y32N, T33S, T53S, T56G, I57V, K58I, Y59F, T61A, W115S
B4: 1.1b-2GS-1.1a (other)
chain: QVQLVESGGGLVKPGGSLRLSCAASGFTFSDYTMTWMRQAPGKGLEWVSYISTGGTIKYYTDSVKGRFTISRDNAKNSLYLQMNSLRADDTAVYYCAREAPLRLGESPHDAFDIWGQGTMVTVSSGGGGSGGGGSEVQLLESGGGSVQPGRSLRLSCAASGFTFDDHAMHWVRQAPGKGLEWVSGISWNSGSMGYADSVKDRFTISRDNAKSSLYLQMNSLRAEDTALYYCVREKGPGLTGSTADYYGLDVWGQGTMVTVSS
notes: Biparatopic VH-linker-VH; His tag implied by the assays; not in the chain
B5: 1.1a-4GS-1.57b (other)
chain: EVQLLESGGGSVQPGRSLRLSCAASGFTFDDHAMHWVRQAPGKGLEWVSGISWNSGSMGYADSVKDRFTISRDNAKSSLYLQMNSLRAEDTALYYCVREKGPGLTGSTADYYGLDVWGQGTMVTVSSGGGGSGGGGSGGGGSGGGGSQVQLVESGGGLVKPGGSLRLSCAASGFTFSDNSMTWMRQAPGKGLEWVSYISSGGGVIFYADSVKGRFTISRDNAKNSLYLQMNSLRADDTAVYYCAREAPLRLGESPHDAFDISGQGTMVTVSS
B6: 1.77b-1GS-1.21a (other)
chain: EVQLVESGGGLVKPGGSLRLSCAASGFTFSDSSMTWMRQAPGKGLEWVSYISSGGGVKFYTDSVKGRFTISRDNAKNSLYLQMNSLRAEDTAVYYCAREAPLRLGESPHDAFDISGQGTMVTVSSGGGGSEVQLVESGGGLVQPGRSLRLSCAASGFTFDDYAMHWVRQAPGKDLEWVSGISWNGGSMGYAASVKGRFTISRDNAKNSLYLQMNSLRAEDTALYYCVREKGPGLTGSTADYYGLDVWGQGTMVTVSS
B7: 1.1b-4GS-1.1a (other)
chain: QVQLVESGGGLVKPGGSLRLSCAASGFTFSDYTMTWMRQAPGKGLEWVSYISTGGTIKYYTDSVKGRFTISRDNAKNSLYLQMNSLRADDTAVYYCAREAPLRLGESPHDAFDIWGQGTMVTVSSGGGGSGGGGSGGGGSGGGGSEVQLLESGGGSVQPGRSLRLSCAASGFTFDDHAMHWVRQAPGKGLEWVSGISWNSGSMGYADSVKDRFTISRDNAKSSLYLQMNSLRAEDTALYYCVREKGPGLTGSTADYYGLDVWGQGTMVTVSS
notes: Biparatopic VH-linker-VH
B8: 1.77b-4GS-1.21a (other)
chain: EVQLVESGGGLVKPGGSLRLSCAASGFTFSDSSMTWMRQAPGKGLEWVSYISSGGGVKFYTDSVKGRFTISRDNAKNSLYLQMNSLRAEDTAVYYCAREAPLRLGESPHDAFDISGQGTMVTVSSGGGGSGGGGSGGGGSGGGGSEVQLVESGGGLVQPGRSLRLSCAASGFTFDDYAMHWVRQAPGKDLEWVSGISWNGGSMGYAASVKGRFTISRDNAKNSLYLQMNSLRAEDTALYYCVREKGPGLTGSTADYYGLDVWGQGTMVTVSS
B9: 1.64b-4GS-1.1a (other)
chain: B7 chain with Q1E, Y32S, T33S, T53S, T56G, I57V, Y59F, T61A, W115S

Assays:
[1] = target: T1, human PD-1 expressed on cells (CHO TREX human PD1 cell line, full-length human PD-1 sequence) (human, UniProt Q15116 21-288); assay: cell-based or functional assay
[2] = target: T1, human PD-1 expressed on cells (CHO TREX …); assay: FMAT: inhibition of human Fc tagged human PD-L1 (400 pM) binding to CHO human PD-1 cells
Method: (§1) Purified VH were serially diluted in FMAT assay buffer and tested for binding to CHO human PD-1 cells as described above and for inhibition of human PD-L1/PD-L2 binding to CHO human PD-1 cells. All reagents and serially diluted VH were prepared in FMAT assay buffer. VH, buffer (total binding controls) or excess competitor (non-specific binding control) were incubated with 400 pM human Fc tagged human PD-L1 or 100 pM PDL-2, 4 nM anti human Fc-Alexa Fluor-488 and 2000 per well CHO human PD-1 DRAQ5 stained cells in a 384 well black clear-bottomed assay plates. Plates were incubated for 2 hours at room temperature then fluorescence measured in the FL2 (502 nm-537 nm) and FL5 (677-800 nm) channels on the Mirrorball plate reader (TTP) following excitation at 488 nm and 640 nm. Data was expressed as a % of the total binding control (i.e. % control) after subtraction of the background signal determined from the non-specific binding control wells. The results are shown in FIG. 5 and in Tables 8 and 9 below.

[3] = target: T1, human PD-1 expressed on cells (CHO TREX …); assay: FMAT: inhibition of PDL-2 (100 pM) binding to CHO human PD-1 cells
Method: as §1

[4] = target: T1, human PD-1 expressed on cells (CHO TREX …); assay: FMAT: inhibition of human Fc tagged human PD-L1 (400 pM) binding to CHO human PD-1 cells; remark: listed apart in the source
Method: as §1

[5] = target: T2, Strep tagged recombinant human PD-1 (human, UniProt Q15116 25-167, limits assumed); assay: SPR Biacore T200, single cycle kinetics, Strep tagged human PD-1 amine coupled, 1:1 model
T2 construct: whole entry named; also called Strep tagged human PD-1; not shown: Strep tag
Method: Single cycle kinetics assays were used to study the interaction between human PD-1 with Humabody VHs on a Biacore T200 instrument (GE Healthcare). Strep tagged recombinant human PD-1 was amine coupled to one flow cell of a CM-5 chip to create a low density surface (14 RU) using standard Biacore reagents. For the reference flow cell, a blank immobilisation was carried out. A five point, three-fold dilution series of each Humabody VH was made with a top concentration of 25 nM. The binding kinetics were followed by flowing the Humabody VH over the chip surface in HBS EP+ buffer at a flow rate of 30 μl/min. The contact time for each of the association steps was 180 seconds and the dissociation step was 3300 seconds. The data was fitted to a 1:1 binding model after double reference subtraction using the Biacore T200 Evaluation software.

[6] = target: T3, recombinant human PD-1 Fc chimera (human, UniProt Q15116 25-167); assay: SPR Biacore T200, single cycle kinetics, human PD-1-hu Fc amine coupled to CM5, 1:1 model
T3 construct: Bought protein (R&D 1086-PD in the HTRF assay); also called human PD-1-hu Fc; huPD-1Fc; not shown: human Fc
Method: Binding kinetics of certain humabodies binding to human PD-1-hu Fc were measured by surface plasmon resonance (SPR) technology using Biacore T200 instrument (GE Healthcare). Recombinant human PD-1-hu Fc was immobilized by standard amine coupling to CM5 sensors chip (GE Healthcare) using 0.1 mg/ml solution of antigen in 10 mM sodium acetate at pH 5.5. For the reference flow cell, a blank immobilisation was carried out. Single cycle kinetics assays were used to study the interaction, a five point, three-fold dilution series of each Humabody® VH was made with a top concentration of 30 nM. The binding kinetics were followed by flowing the Humabody® VH over the chip surface in HBS EP+ buffer at a flow rate of 30 μl/min. The contact time for each of the association steps was 180 seconds and the dissociation step was varied between 1200-3600 seconds. The data was fitted to a 1:1 binding model after double reference subtraction using the Biacore T200 Evaluation software.

[7] = target: T3, recombinant human PD-1 Fc chimera; assay: SPR Biacore T200, single cycle kinetics, human Fc tagged PD-1 captured on Protein G, 1:1 model
Method: Single cycle kinetics assays were used to study the interaction between human Fc tagged human PD-1 with Humabody® VH on a Biacore T200 instrument (GE Healthcare). Protein G was amine coupled to two flow cells of a CM-5 chip. Human Fc tagged recombinant human PD-1 was captured onto one of the flow cells. The other was used as the reference flow cell. A five point, three-fold dilution series of each Humabody® VH was made with a top concentration within the range of 50 to 150 nM. The binding kinetics were followed by flowing the Humabody® VH over the chip surface in HBS EP+ buffer at a flow rate of 30 μl/min. The contact time for each of the association steps was 180 seconds and the dissociation step was 3600 seconds. The data was fitted to a 1:1 binding model after double reference subtraction using the Biacore T200 Evaluation software.

[8] = target: T1, human PD-1 expressed on cells (CHO TREX …); assay: cell-based or functional assay; remark: listed apart in the source

T2 sequence (Q15116 25-167 limits assumed): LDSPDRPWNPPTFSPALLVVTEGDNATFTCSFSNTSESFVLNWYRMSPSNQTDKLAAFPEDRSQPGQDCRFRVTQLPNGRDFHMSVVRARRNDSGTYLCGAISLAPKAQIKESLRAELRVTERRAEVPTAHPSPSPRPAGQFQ
T3 sequence (Q15116 25-167 limits assumed, stated change not applied): as the sequence (Q15116 25-167 limits assumed) above
T1 sequence (Q15116 21-288): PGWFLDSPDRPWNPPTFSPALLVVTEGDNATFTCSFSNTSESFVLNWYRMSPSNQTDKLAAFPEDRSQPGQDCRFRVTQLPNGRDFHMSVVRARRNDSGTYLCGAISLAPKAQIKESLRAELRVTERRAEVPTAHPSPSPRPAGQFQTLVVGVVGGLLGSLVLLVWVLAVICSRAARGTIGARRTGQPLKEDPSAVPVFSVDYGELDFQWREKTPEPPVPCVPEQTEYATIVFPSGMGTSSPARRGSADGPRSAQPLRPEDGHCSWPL

Row | Binder | EC50 uM, PathHunter Checkpoint assay (PD-1 signalling) [1] | Max. % increase in response over baseline, PathHunter Checkpoint assay [1] | IC50 [2] | Kd [6] | koff [6] | kon [6] | EC50 (M), NFAT-Luciferase reporter gene assay [8] | also measured
1 | B1 | 0.0002 µM | 48.5% |  |  |  |  |  | 
2 | B2 |  |  | 23 nM |  |  |  |  | 
3 | B3 |  |  | 4.2 nM | 0.000124 nM | 6.68e-08 s⁻¹ | 537000 M⁻¹ s⁻¹ |  | IC50 [3]: 2.3 nM; IC50 [4]: 1.8 nM; Kd [5]: 0.0782 nM; koff [5]: 3.17e-05 s⁻¹; kon [5]: 405000 M⁻¹ s⁻¹; Kd [7]: 0.0441 nM; koff [7]: 2.11e-05 s⁻¹; kon [7]: 479000 M⁻¹ s⁻¹
4 | B4 |  |  |  | 0.0346 nM | 1.08e-05 s⁻¹ | 313000 M⁻¹ s⁻¹ | 7.2e-09 M | 
5 | B5 |  |  |  |  |  |  | 3.9e-09 M | 
6 | B6 | 0.00059 µM | 1330% |  |  |  |  | 2.3e-09 M | 
7 | B7 |  |  | 5.6 nM | 0.035 nM | 1.1e-05 s⁻¹ | 316000 M⁻¹ s⁻¹ | 8.5e-09 M | 
8 | B8 | 0.0005 µM | 253% |  |  |  |  | 3.2e-09 M | 
9 | B9 |  |  |  |  |  |  | 3e-09 M | 
